Tests used:
FcγRIa [1] = molecular target: T1, FcγRIa (human, UniProt P12314 16-292); test: SPR; vs GpH7-B3/GpL16-k0=100
T1 construct: extracellular domain; also called FcgRI; CD64

FcγRIa [2] = molecular target: T1, FcγRIa; test: SPR; vs GpH7-A5/GpH7-B3/GpL16-k0=100

T1 sequence (P12314 16-292): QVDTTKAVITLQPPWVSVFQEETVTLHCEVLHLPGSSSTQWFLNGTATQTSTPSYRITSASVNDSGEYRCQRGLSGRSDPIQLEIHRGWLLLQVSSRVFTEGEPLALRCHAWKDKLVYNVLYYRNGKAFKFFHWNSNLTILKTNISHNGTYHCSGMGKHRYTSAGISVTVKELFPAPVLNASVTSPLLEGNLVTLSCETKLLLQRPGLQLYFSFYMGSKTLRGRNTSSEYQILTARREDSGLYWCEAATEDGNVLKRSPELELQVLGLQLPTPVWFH

Binder | Ho/Con_1a (FcγRIa [1]) | He/Con_1a (FcγRIa [2])
GpH7-B3 variant P238_03V/GpL16-k0 (antibody, human IgG1, kappa, homodimerized; also called Ho Ab P238_03V) heavy: not shown light: DIVMTQSPLSLPVTPGEPASISCQASESLVHSNRNTYLHWYLQKPGQSPQLLIYKVSNRFSGVPDRFSGSGSGTDFTLKISRVEAEDVGVYYCSQNTHVPPTFGQGTKVEIERTVAAPSVFIFPPSDEQLKSGTASVVCLLNNFYPREAKVQWKVDNALQSGNSQESVTEQDSKDSTYSLSSTLTLSKADYEKHKVYACEVTHQGLSSPVTKSFNRGEC | 97.9 % of control | 
GpH7-A5/GpH7-B3 variant E269_04F/GpL16-k0 (antibody, human IgG1, kappa, heterodimerized; also called He Ab E269_04F) heavy 1: not shown heavy 2: not shown light: DIVMTQSPLSLPVTPGEPASISCQASESLVHSNRNTYLHWYLQKPGQSPQLLIYKVSNRFSGVPDRFSGSGSGTDFTLKISRVEAEDVGVYYCSQNTHVPPTFGQGTKVEIERTVAAPSVFIFPPSDEQLKSGTASVVCLLNNFYPREAKVQWKVDNALQSGNSQESVTEQDSKDSTYSLSSTLTLSKADYEKHKVYACEVTHQGLSSPVTKSFNRGEC |  | 103 % of control
GpH7-B3 variant P271_20W/GpL16-k0 (antibody, human IgG1, kappa, homodimerized; also called Ho Ab P271_20W) heavy: not shown light: DIVMTQSPLSLPVTPGEPASISCQASESLVHSNRNTYLHWYLQKPGQSPQLLIYKVSNRFSGVPDRFSGSGSGTDFTLKISRVEAEDVGVYYCSQNTHVPPTFGQGTKVEIERTVAAPSVFIFPPSDEQLKSGTASVVCLLNNFYPREAKVQWKVDNALQSGNSQESVTEQDSKDSTYSLSSTLTLSKADYEKHKVYACEVTHQGLSSPVTKSFNRGEC | 102 % of control | 
GpH7-B3 variant P271_07I/GpL16-k0 (antibody, human IgG1, kappa, homodimerized; also called Ho Ab P271_07I) heavy: not shown light: DIVMTQSPLSLPVTPGEPASISCQASESLVHSNRNTYLHWYLQKPGQSPQLLIYKVSNRFSGVPDRFSGSGSGTDFTLKISRVEAEDVGVYYCSQNTHVPPTFGQGTKVEIERTVAAPSVFIFPPSDEQLKSGTASVVCLLNNFYPREAKVQWKVDNALQSGNSQESVTEQDSKDSTYSLSSTLTLSKADYEKHKVYACEVTHQGLSSPVTKSFNRGEC | 102 % of control | 
GpH7-A5/GpH7-B3 variant A327_09D/GpL16-k0 (antibody, human IgG1, kappa, heterodimerized; also called He Ab A327_09D) heavy 1: not shown heavy 2: not shown light: DIVMTQSPLSLPVTPGEPASISCQASESLVHSNRNTYLHWYLQKPGQSPQLLIYKVSNRFSGVPDRFSGSGSGTDFTLKISRVEAEDVGVYYCSQNTHVPPTFGQGTKVEIERTVAAPSVFIFPPSDEQLKSGTASVVCLLNNFYPREAKVQWKVDNALQSGNSQESVTEQDSKDSTYSLSSTLTLSKADYEKHKVYACEVTHQGLSSPVTKSFNRGEC |  | 103 % of control
GpH7-B3 variant P238_10E/GpL16-k0 (antibody, human IgG1, kappa, homodimerized; also called Ho Ab P238_10E) heavy: not shown light: DIVMTQSPLSLPVTPGEPASISCQASESLVHSNRNTYLHWYLQKPGQSPQLLIYKVSNRFSGVPDRFSGSGSGTDFTLKISRVEAEDVGVYYCSQNTHVPPTFGQGTKVEIERTVAAPSVFIFPPSDEQLKSGTASVVCLLNNFYPREAKVQWKVDNALQSGNSQESVTEQDSKDSTYSLSSTLTLSKADYEKHKVYACEVTHQGLSSPVTKSFNRGEC | 91.8 % of control | 
GpH7-B3 variant P271_12R/GpL16-k0 (antibody, human IgG1, kappa, homodimerized; also called Ho Ab P271_12R) heavy: not shown light: DIVMTQSPLSLPVTPGEPASISCQASESLVHSNRNTYLHWYLQKPGQSPQLLIYKVSNRFSGVPDRFSGSGSGTDFTLKISRVEAEDVGVYYCSQNTHVPPTFGQGTKVEIERTVAAPSVFIFPPSDEQLKSGTASVVCLLNNFYPREAKVQWKVDNALQSGNSQESVTEQDSKDSTYSLSSTLTLSKADYEKHKVYACEVTHQGLSSPVTKSFNRGEC | 101 % of control | 
GpH7-B3 variant P271_06M/GpL16-k0 (antibody, human IgG1, kappa, homodimerized; also called Ho Ab P271_06M) heavy: not shown light: DIVMTQSPLSLPVTPGEPASISCQASESLVHSNRNTYLHWYLQKPGQSPQLLIYKVSNRFSGVPDRFSGSGSGTDFTLKISRVEAEDVGVYYCSQNTHVPPTFGQGTKVEIERTVAAPSVFIFPPSDEQLKSGTASVVCLLNNFYPREAKVQWKVDNALQSGNSQESVTEQDSKDSTYSLSSTLTLSKADYEKHKVYACEVTHQGLSSPVTKSFNRGEC | 102 % of control | 
GpH7-B3 variant P271_13S/GpL16-k0 (antibody, human IgG1, kappa, homodimerized; also called Ho Ab P271_13S) heavy: not shown light: DIVMTQSPLSLPVTPGEPASISCQASESLVHSNRNTYLHWYLQKPGQSPQLLIYKVSNRFSGVPDRFSGSGSGTDFTLKISRVEAEDVGVYYCSQNTHVPPTFGQGTKVEIERTVAAPSVFIFPPSDEQLKSGTASVVCLLNNFYPREAKVQWKVDNALQSGNSQESVTEQDSKDSTYSLSSTLTLSKADYEKHKVYACEVTHQGLSSPVTKSFNRGEC | 101 % of control | 
GpH7-B3 variant Q295_02A/GpL16-k0 (antibody, human IgG1, kappa, homodimerized; also called Ho Ab Q295_02A) heavy: not shown light: DIVMTQSPLSLPVTPGEPASISCQASESLVHSNRNTYLHWYLQKPGQSPQLLIYKVSNRFSGVPDRFSGSGSGTDFTLKISRVEAEDVGVYYCSQNTHVPPTFGQGTKVEIERTVAAPSVFIFPPSDEQLKSGTASVVCLLNNFYPREAKVQWKVDNALQSGNSQESVTEQDSKDSTYSLSSTLTLSKADYEKHKVYACEVTHQGLSSPVTKSFNRGEC | 104 % of control | 
GpH7-B3 variant P271_03V/GpL16-k0 (antibody, human IgG1, kappa, homodimerized; also called Ho Ab P271_03V) heavy: not shown light: DIVMTQSPLSLPVTPGEPASISCQASESLVHSNRNTYLHWYLQKPGQSPQLLIYKVSNRFSGVPDRFSGSGSGTDFTLKISRVEAEDVGVYYCSQNTHVPPTFGQGTKVEIERTVAAPSVFIFPPSDEQLKSGTASVVCLLNNFYPREAKVQWKVDNALQSGNSQESVTEQDSKDSTYSLSSTLTLSKADYEKHKVYACEVTHQGLSSPVTKSFNRGEC | 102 % of control | 
GpH7-A5/GpH7-B3 variant A327_06M/GpL16-k0 (antibody, human IgG1, kappa, heterodimerized; also called He Ab A327_06M) heavy 1: not shown heavy 2: not shown light: DIVMTQSPLSLPVTPGEPASISCQASESLVHSNRNTYLHWYLQKPGQSPQLLIYKVSNRFSGVPDRFSGSGSGTDFTLKISRVEAEDVGVYYCSQNTHVPPTFGQGTKVEIERTVAAPSVFIFPPSDEQLKSGTASVVCLLNNFYPREAKVQWKVDNALQSGNSQESVTEQDSKDSTYSLSSTLTLSKADYEKHKVYACEVTHQGLSSPVTKSFNRGEC |  | 103 % of control
GpH7-A5/GpH7-B3 variant A327_10E/GpL16-k0 (antibody, human IgG1, kappa, heterodimerized; also called He Ab A327_10E) heavy 1: not shown heavy 2: not shown light: DIVMTQSPLSLPVTPGEPASISCQASESLVHSNRNTYLHWYLQKPGQSPQLLIYKVSNRFSGVPDRFSGSGSGTDFTLKISRVEAEDVGVYYCSQNTHVPPTFGQGTKVEIERTVAAPSVFIFPPSDEQLKSGTASVVCLLNNFYPREAKVQWKVDNALQSGNSQESVTEQDSKDSTYSLSSTLTLSKADYEKHKVYACEVTHQGLSSPVTKSFNRGEC |  | 103 % of control
GpH7-A5/GpH7-B3 variant A327_07I/GpL16-k0 (antibody, human IgG1, kappa, heterodimerized; also called He Ab A327_07I) heavy 1: not shown heavy 2: not shown light: DIVMTQSPLSLPVTPGEPASISCQASESLVHSNRNTYLHWYLQKPGQSPQLLIYKVSNRFSGVPDRFSGSGSGTDFTLKISRVEAEDVGVYYCSQNTHVPPTFGQGTKVEIERTVAAPSVFIFPPSDEQLKSGTASVVCLLNNFYPREAKVQWKVDNALQSGNSQESVTEQDSKDSTYSLSSTLTLSKADYEKHKVYACEVTHQGLSSPVTKSFNRGEC |  | 104 % of control
GpH7-B3 variant P271_02A/GpL16-k0 (antibody, human IgG1, kappa, homodimerized; also called Ho Ab P271_02A) heavy: not shown light: DIVMTQSPLSLPVTPGEPASISCQASESLVHSNRNTYLHWYLQKPGQSPQLLIYKVSNRFSGVPDRFSGSGSGTDFTLKISRVEAEDVGVYYCSQNTHVPPTFGQGTKVEIERTVAAPSVFIFPPSDEQLKSGTASVVCLLNNFYPREAKVQWKVDNALQSGNSQESVTEQDSKDSTYSLSSTLTLSKADYEKHKVYACEVTHQGLSSPVTKSFNRGEC | 102 % of control | 
GpH7-B3 variant P271_11K/GpL16-k0 (antibody, human IgG1, kappa, homodimerized; also called Ho Ab P271_11K) heavy: not shown light: DIVMTQSPLSLPVTPGEPASISCQASESLVHSNRNTYLHWYLQKPGQSPQLLIYKVSNRFSGVPDRFSGSGSGTDFTLKISRVEAEDVGVYYCSQNTHVPPTFGQGTKVEIERTVAAPSVFIFPPSDEQLKSGTASVVCLLNNFYPREAKVQWKVDNALQSGNSQESVTEQDSKDSTYSLSSTLTLSKADYEKHKVYACEVTHQGLSSPVTKSFNRGEC | 101 % of control | 
GpH7-B3 variant P238_04F/GpL16-k0 (antibody, human IgG1, kappa, homodimerized; also called Ho Ab P238_04F) heavy: not shown light: DIVMTQSPLSLPVTPGEPASISCQASESLVHSNRNTYLHWYLQKPGQSPQLLIYKVSNRFSGVPDRFSGSGSGTDFTLKISRVEAEDVGVYYCSQNTHVPPTFGQGTKVEIERTVAAPSVFIFPPSDEQLKSGTASVVCLLNNFYPREAKVQWKVDNALQSGNSQESVTEQDSKDSTYSLSSTLTLSKADYEKHKVYACEVTHQGLSSPVTKSFNRGEC | 98.7 % of control | 
GpH7-A5/GpH7-B3 variant A327_03V/GpL16-k0 (antibody, human IgG1, kappa, heterodimerized; also called He Ab A327_03V) heavy 1: not shown heavy 2: not shown light: DIVMTQSPLSLPVTPGEPASISCQASESLVHSNRNTYLHWYLQKPGQSPQLLIYKVSNRFSGVPDRFSGSGSGTDFTLKISRVEAEDVGVYYCSQNTHVPPTFGQGTKVEIERTVAAPSVFIFPPSDEQLKSGTASVVCLLNNFYPREAKVQWKVDNALQSGNSQESVTEQDSKDSTYSLSSTLTLSKADYEKHKVYACEVTHQGLSSPVTKSFNRGEC |  | 103 % of control
GpH7-B3 variant P238_06M/GpL16-k0 (antibody, human IgG1, kappa, homodimerized; also called Ho Ab P238_06M) heavy: not shown light: DIVMTQSPLSLPVTPGEPASISCQASESLVHSNRNTYLHWYLQKPGQSPQLLIYKVSNRFSGVPDRFSGSGSGTDFTLKISRVEAEDVGVYYCSQNTHVPPTFGQGTKVEIERTVAAPSVFIFPPSDEQLKSGTASVVCLLNNFYPREAKVQWKVDNALQSGNSQESVTEQDSKDSTYSLSSTLTLSKADYEKHKVYACEVTHQGLSSPVTKSFNRGEC | 100 % of control | 
GpH7-B3 variant P238_08L/GpL16-k0 (antibody, human IgG1, kappa, homodimerized; also called Ho Ab P238_08L) heavy: not shown light: DIVMTQSPLSLPVTPGEPASISCQASESLVHSNRNTYLHWYLQKPGQSPQLLIYKVSNRFSGVPDRFSGSGSGTDFTLKISRVEAEDVGVYYCSQNTHVPPTFGQGTKVEIERTVAAPSVFIFPPSDEQLKSGTASVVCLLNNFYPREAKVQWKVDNALQSGNSQESVTEQDSKDSTYSLSSTLTLSKADYEKHKVYACEVTHQGLSSPVTKSFNRGEC | 100 % of control | 
GpH7-B3 variant P271_04F/GpL16-k0 (antibody, human IgG1, kappa, homodimerized; also called Ho Ab P271_04F) heavy: not shown light: DIVMTQSPLSLPVTPGEPASISCQASESLVHSNRNTYLHWYLQKPGQSPQLLIYKVSNRFSGVPDRFSGSGSGTDFTLKISRVEAEDVGVYYCSQNTHVPPTFGQGTKVEIERTVAAPSVFIFPPSDEQLKSGTASVVCLLNNFYPREAKVQWKVDNALQSGNSQESVTEQDSKDSTYSLSSTLTLSKADYEKHKVYACEVTHQGLSSPVTKSFNRGEC | 100 % of control | 
GpH7-B3 variant P238_15Y/GpL16-k0 (antibody, human IgG1, kappa, homodimerized; also called Ho Ab P238_15Y) heavy: not shown light: DIVMTQSPLSLPVTPGEPASISCQASESLVHSNRNTYLHWYLQKPGQSPQLLIYKVSNRFSGVPDRFSGSGSGTDFTLKISRVEAEDVGVYYCSQNTHVPPTFGQGTKVEIERTVAAPSVFIFPPSDEQLKSGTASVVCLLNNFYPREAKVQWKVDNALQSGNSQESVTEQDSKDSTYSLSSTLTLSKADYEKHKVYACEVTHQGLSSPVTKSFNRGEC | 99 % of control | 
